B1: S7-xyl (Xyn10A in Table 1) (Halalkalibacterium halodurans C-125) (protein)
chain: AQGGPPKSGVFGENEKRNDQPFAWQVASLSERYQEQFDIGAAVEPYQLEGRQAQILKHHYNSLVAENAMKPESLQPREGEWNWEGADKIVEFARKHNMELRFHTLVWHSQVPEWFFIDEDGNRMVDETDPDKREANKQLLLERMENHIKTVVERYKDDVTSWDVVNEVIDDGGGLRESEWYQITGTDYIKVAFETARKYGGEEAKLYINDYNTEVPSKRDDLYNLVKDLLEQGVPIDGVGHQSHIQIGWPSIEDTRASFEKFTSLGLDNQVTELDMSLYGWPPTGAYTSYDDIPAELLQAQADRYDQLFELYEELAADISSVTFWGIADNHTWLDGRAREYNNGVGIDAPFVFDHNYRVKPAYWRIID
notes: N-terminal His-tag, pET-28a, E. coli Rosetta (DE3), codon-optimized synthetic gene; GH10
B2: S7-xyl (Xyn10A in Table 1) (Halalkalibacterium halodurans C-125; Q274S/V243N/W277R) (protein)
chain: AQGGPPKSGVFGENEKRNDQPFAWQVASLSERYQEQFDIGAAVEPYQLEGRQAQILKHHYNSLVAENAMKPESLQPREGEWNWEGADKIVEFARKHNMELRFHTLVWHSQVPEWFFIDEDGNRMVDETDPDKREANKQLLLERMENHIKTVVERYKDDVTSWDVVNEVIDDGGGLRESEWYQITGTDYIKVAFETARKYGGEEAKLYINDYNTENPSKRDDLYNLVKDLLEQGVPIDGVGHQSHISIGRPSIEDTRASFEKFTSLGLDNQVTELDMSLYGWPPTGAYTSYDDIPAELLQAQADRYDQLFELYEELAADISSVTFWGIADNHTWLDGRAREYNNGVGIDAPFVFDHNYRVKPAYWRIID
notes: as for B1

Substrate: O=[N+]([O-])c1ccc(O[C@@H]2OC[C@@H](O[C@@H]3OC[C@@H](O)[C@H](O)[C@H]3O)[C@H](O)[C@H]2O)cc1
Assay: Eadie-Hofstee plot of hydrolysis
Assay type: biochemical, Halalkalibacterium halodurans
Conditions: pH and temperature of kinetic assay not stated (activity assay: glycine-NaOH pH 9.0, 70 °C)
From the text: Eadie-Hofstee plot of hydrolysis on S7-xyl (Xyn10A in Table 1)

[1] = mutant 254RL1, text b16 says Km slightly increased by 10%, table shows a decrease

Protein	Km (listed as labelled Xyn10A) [mM]	kcat (listed as labelled Xyn10A) [s⁻¹]	kcat/Km (listed as labelled Xyn10A) [M⁻¹ s⁻¹]	Km [1] [mM]	kcat [1] [s⁻¹]	kcat/Km [1] [M⁻¹ s⁻¹]
B1	4.42 ± 0.12	4.57 ± 0.31	1030	–	–	–
B2	–	–	–	4.04 ± 0.27	14.4 ± 0.21	3540

Reference: publication PMC6874815, “Tunnel engineering to accelerate product release for better biomass-degrading abilities in lignocellulolytic enzymes” (Biotechnology for Biofuels, 2019)
